In the supplement of paper PMC9170038:

System: MS2 coat protein
Experiment: apparent KD of MS2 coat protein; designed switch direction (-1 OFF switch, 1 ON switch): 1; higher = weaker reporter binding
Outline: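 On Illumina chips, designed RNA switches with common flanks were made by stalled E. coli RNA polymerase. Titrations with SNAP-549-labelled MS2 coat protein, doubling from 0.7 or 1.5 nM to 3 µM, were done with no input, with 200 uM small-molecule ligand, or with an oligonucleotide input. Apparent KD is the median per design over clusters, from curve fits of normalised cluster fluorescence.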

[1] = input ligand: microRNA oligo, concentration not stated
[2] = Eterna round: R95, input ligand: FMN 200 uM
[3] = Eterna round: R95, input ligand: microRNA oligo, concentration not stated
[4] = Eterna round: R95, input ligand: none

Sequence | apparent KD of MS2 coat protein (input ligand: FMN 200 uM) [nM] | apparent KD of MS2 coat protein [1] [nM] | apparent KD of MS2 coat protein (input ligand: none) [nM] | apparent KD of MS2 coat protein [2] [nM] | apparent KD of MS2 coat protein [3] [nM] | apparent KD of MS2 coat protein [4] [nM]
UGGCUCAGACUAGGAUAUACGUGGUCACAUGAGGAUCACCCAUGUCUCGAGCUUCGGCUCGAGGCGUAGAAGGAGUCUGAGCCU [SSNG2/6-D3] (Eterna round: R96, puzzle: Same State NG 2) | 126 | 245 | 334 | – | – | –
UUAUUAUACGUAGGAUAUUGAUGAUUGAUAGUACAAGAAGGACGAACAUGAGGAUCACCCAUGUAUAUUAAAAUGAGUUUGAAU [JR_SSNG1_Sub077] (Eterna round: R96, puzzle: Same State NG 1) | 72.8 | 52.8 | 55.1 | – | – | –
ACAAGCUUUUCUGUAUUGAAAGGUGGGAUACAUGAGGAUCACCCAUGUUUUUUCGUUUGUUUUGUUCCUCGUCUUAU [JR_SHM208A_Sub090] (puzzle: Sensor for hsa-mir-208a) | – | – | – | 87.7 | 23.9 | 116
CUGAGCGAUCAAGGAUAUCACGUCGAAUAGACGUGAGAAGGUGAUAAUUACAUGAGGAUCACCCAUGUAUAACAUGAAGCUCAG [SSNG1/9-A1] (Eterna round: R96, puzzle: Same State NG 1) | 16.6 | 15.6 | 22.4 | – | – | –
GCUCGAUGAGCGUUCUACAUGAGGAUCACCCAUGUUCGUGGGCAGGAUAUUUACGUGCAGAGUGUAGAGAAGGGCCCAUCGAGC [SameState NG3 #67] (Eterna round: R96, puzzle: Same State NG 3) | 1260 | 270 | 196 | – | – | –
AAACACGGCAUAACACCGUGACAUGAGGAUCACCCAUGUACACAGGAUAUCAUGGCAAAACGCCAUGAGAAGGGUGAUCAAGAC [Telate] (Eterna round: R96, puzzle: Same State NG 3) | 464 | 68.1 | 35.1 | – | – | –
GCUACCAAAGAAGCCAACAUGAGGAUCACCCAUGUAUGUUGGUAGGAUAUCGAUUGCAAAGCGAUCGAGAAGGGCUAAGGUAGC [Mat - Same State NG 3 - JL Mod - D84] (Eterna round: R96, puzzle: Same State NG 3) | 132 | 93.1 | 95.5 | – | – | –
AAAAUCGCGAUAGGAUAUGGGAAAGGAAGUGUACCAGAAGGAUCAGCGCCGACUGGACAUGAGGAUCACCCAUGUCGAGUCUUA [PowerStrip SSNG 1.2] (Eterna round: R96, puzzle: Same State NG 1) | 42.2 | 26.6 | 80.5 | – | – | –
UGAAUAGUUACAGGAUAUGAGCCGAAAAUUGGGUCAGAAGGGUGGGUGUUGUGCGCUAUGUGCUACAUGAGGAUCACCCAUGUU [SameState NG1 #35] (Eterna round: R96, puzzle: Same State NG 1) | 1210 | 23.3 | 208 | – | – | –
GGUCCAGCCUGAGCUGGACAAAAGCAUGUACAUGAGGAUCACCCAUGUCAUGUACAAGCUUUUUGCUCGUCUUAAGA [Mat - hsa-mir-208a - 88] (puzzle: Sensor for hsa-mir-208a) | – | – | – | 1060 | 17.7 | 1020
UGCUUCAUGUAAGGAUAUGCAGCCGUUUCGGCUGCAGAAGGUACUAUAAUACAUGAGGAUCACCCAUGUCUCUCGCAUUGCGGG [salish99_SSng1_r04_302] (Eterna round: R96, puzzle: Same State NG 1) | 91 | 118 | 184 | – | – | –
UCAAGCUUUUUGCUCGUUUUAUGUGUUGAACAUGAGGAUCACCCAUGUAUUGUACGAUCCAGUUAGAUGGUAAUUUG [JR_SHM208A_Sub041] (puzzle: Sensor for hsa-mir-208a) | – | – | – | 62.5 | 140 | 79.8
AUACAUGAGGAUCACCCAUGUGAGCAGAGAUAUCUGAUGUACAAGGAUAUCCGAGGGAUCCCGAUGGAGAAGGUGUGCCACCUG [Eternabot solution 22] (Eterna round: R96, puzzle: Same State NG 3) | 57.1 | 43 | 55.9 | – | – | –
GUGCUCGUGUGAGGAUAUGCUUCCGUUUCGGCUGCAGAAGGUACUAUUAUACAUGAGGAUCACCCAUGUCCCUUUUCUCCGGUG [salish99_SSNG1_r04_914] (Eterna round: R96, puzzle: Same State NG 1) | 18.4 | 13.5 | 21.9 | – | – | –
GUAGCAUACCGAGGAUAUUCAUAACCGAAAGGAACAUGAGGAUCACCCAUGUGGCGAAAGCCUUGGGAGAAGGCGGAAUGCUAC [Xeonanis - 20 Mod74] (Eterna round: R96, puzzle: Same State NG 2) | 42.8 | 291 | 957 | – | – | –
UCAGAGGCGCUAGGAUAUCUCUCCGAGAAGCAGAGAGAAGGAGUGCGGAACCCAAGACCUACAUGAGGAUCACCCAUGUCUCAA [Eternabot solution 27] (Eterna round: R96, puzzle: Same State NG 1) | 22.8 | 22.9 | 38.7 | – | – | –
GGCCUCUGUCAAGGAUAUGCUACCGUUUCGGUAGCAGAAGGUGAUCACAUGCGGGUCACCCAUGUUUAGGCCAACAGGCCCGCC (Eterna round: R96, puzzle: Same State NG 1) | 63 | 1.08 | 3.57 | – | – | –
ACAUGAGGAUCACCCAUGUAUGCUCAGGAAACUGUGCAUCAUGAGGAUAUGGAUCCUAAUUGGAUCCAGAAGGCAUGUAUUAUU [Fiskers NG3ss - 28] (Eterna round: R96, puzzle: Same State NG 3) | 699 | 39.1 | 45 | – | – | –
CGAUACACGGCAGGAUAUCGAUUCCAAAGGAAUCGAGAAGGGCCUCAUGUCGUGGAAACGUGACAUGAGGAUCACCCAUGUUGC [Omei SS(NG)1 Cv20] (Eterna round: R96, puzzle: Same State NG 1) | 84.4 | 36.1 | 55.4 | – | – | –
UUCUCUUUUUAGAGACAAGCUUUUUGAUCACAUGAGGAUCACCCAUGUCUCGUCUUAUGAUCUACUUCGGUAGAUCU [BA Sensor hsa-mir-208a - 2 - 5] (puzzle: Sensor for hsa-mir-208a) | – | – | – | 155 | 13.9 | 144
AAUUAUUAACAUGAGGAUCACCCAUGUGUUUUUUGCUCGUCAUGUAUUAUUAUUAUUAUUAUUAUUAUUAUUAUUAA [my second RNA] (puzzle: Sensor for hsa-mir-208a version 2) | – | – | – | 41.9 | 18.8 | 52.4
UGUUGUUAAUUAGGAUAUGGUCACAUGAGGAUCACCCAUGUAAUGUCGAUGCUAUGUGGAUCUGAUCAGAAGGAAUGGCUAACA [SameState NG2 #96] (Eterna round: R96, puzzle: Same State NG 2) | 108 | 105 | 137 | – | – | –
ACAUGAGAUAGAGGAUAUAUUGUACCUACAUGUGACAUGAGGAUCACCCAUGUGGUAAGUAUGACAUAGAAGGCUAAGAUAUGU [Equivalance 82 - Jieux - Same State NG 2] (Eterna round: R96, puzzle: Same State NG 2) | 28.7 | 55.6 | 73.9 | – | – | –
UUUAGUUGCGGGCAGGAUAUGUAUUAAAAUACAUGAGGAUCACCCAUGUGUGGGUAUAACACCCAACAGAAGGGCCAAUCGCGAC [Laonerce - 12] (puzzle: Same State 2) | – | – | – | 17.2 | 154 | 165
GGUAAACAUGAGGAUCACCCAUGUAAUAAUAUGGGAGGAUAUGGGAAUUAAUUAAUUAAACCAGAAGGCCUAAUUG [Mat - Same State 1 - D85] (puzzle: Same State 1) | – | – | – | – | 167 | –
CGUCGUUUGAUAGGAUAUCGCUAUACAUGAGGAUCACCCAUGUUUACCACGCUGGUUUUUCUUUCCGAGAAGGAUUCUGAUGUU [salish99_SSNG02_r04_022] (Eterna round: R96, puzzle: Same State NG 2) | 30.9 | 23.8 | 33.5 | – | – | –
GCUCGAUGAGCGUUUUACAUGAGGAUCACCCAUGUACGUGGGCAGGAUAUUUACGUGCGGUGUGUAGAGAAGGGCCCAUCGAGC [SameState NG3 #70] (Eterna round: R96, puzzle: Same State NG 3) | 48.3 | 243 | 279 | – | – | –
CCUUAGUACAAUUUAGAUCUACAUGAGGAUCACCCAUGUACUGAGGAUAUCAGCUCGUUUAGAGCUGAGAAGGCAGAAGUACUU [SSNG3/7-A3] (Eterna round: R96, puzzle: Same State NG 3) | 75.1 | 67.6 | 140 | – | – | –
UGCAUACAUGAGGAUCACCCAUGUCAACGUAGUCGAGGAUAUGGGCAGCCGUGAGGCGAACCAGAAGGCGAAUUGU [JL-ss1-3.03 ViennaUCT mod] (puzzle: Same State 1) | – | – | – | 23.1 | 52.7 | 115
GUGGCCCAGGCACAGGAUAUGUUUCUCGUAACAUGAGGAUCACCCAUGUGCCUAUGAGAUUUAAUGCAGAAGGGUGCACGCCACA [Mat - Same State 2 - Mod of UCT - D78] (puzzle: Same State 2) | – | – | – | 18.8 | 164 | 199
